Reference: paper PMC10681232

How the values were obtained:
[1] = biological target: Flag-tagged Atlantic halibut Aqp1ab1 wild-type canonical channel (Flag-HhAqp1ab1-WT) (Atlantic halibut (Hippoglossus hippoglossus))
[2] = biological target: Flag-tagged Senegalese sole Aqp1ab2 wild-type canonical channel (Flag-SsAqp1ab2-WT) (Senegalese sole (Solea senegalensis))

inhibition of osmotic water permeability (Pf) of X. laevis oocytes coexpressing HhAqp1ab1 v1 and HhAqp1ab1-WT in ratios from 0.05 to 50, untagged forms, with respect to the canonical channel only [1] [%] | inhibition of osmotic water permeability (Pf) of X. laevis oocytes expressing SsAqp1ab2-WT plus YwhazLb, treated with FSK, after injecting equal cRNA amounts of WT and SsAqp1ab2 v2, untagged forms [2] [%] | Substance
94 |  | HA-tagged Atlantic halibut Aqp1ab1 splice variant 1 (HA-HhAqp1ab1_v1)
 | 84 | HA-tagged Senegalese sole Aqp1ab2 splice variant 2 (HA-SsAqp1ab2_v2) (natural protein)
